Measurements from article PMC5709419, “Fine control of metal concentrations is necessary for cells to discern zinc from cobalt”.

Legend:
[1] = target: T1, Zur (Salmonella enterica sv. Typhimurium …, UniProt A0A0H3NVF0 1-171); assay: fluorescence anisotropy; Co(II)-Zur, 1 uM CoCl2; 10 nM probe, 60 mM NaCl, 240 mM KCl, 10 mM HEPES pH 7.0, anaerobic; temperature not stated; conditions: protein: recombinant; chain copies: 4; label: 5' HEX on strand 1; blunt
[2] = target: T1, Zur; assay: fluorescence anisotropy; Zn(II)2-Zur (tightest two exchangeable sites filled); 10 nM probe, 60 mM NaCl, 240 mM KCl, 10 mM HEPES pH 7.0, anaerobic; temperature not stated; conditions: protein: recombinant; chain copies: 4; label: 5' HEX on strand 1; blunt
[3] = target: T1, Zur; assay: fluorescence anisotropy; Zn(II)4-Zur, 1 uM ZnCl2; 10 nM probe, 60 mM NaCl, 240 mM KCl, 10 mM HEPES pH 7.0, anaerobic; temperature not stated; conditions: protein: recombinant; chain copies: 4; label: 5' HEX on strand 1; blunt
[4] = target: T2, ZntR (Salmonella enterica sv. Typhimurium …, UniProt A0A0H3NSQ7 1-141); assay: fluorescence anisotropy; Zn(II)-ZntR, 1.2 eq ZnCl2; 10 nM probe, 60 mM NaCl, 240 mM KCl, 10 mM HEPES pH 7.0, anaerobic; temperature not stated; conditions: protein: recombinant; chain copies: 2; label: 5' HEX on strand 1; blunt
[5] = target: T2, ZntR; assay: fluorescence anisotropy; apo, 5 mM EDTA; 10 nM probe, 60 mM NaCl, 240 mM KCl, 10 mM HEPES pH 7.0, anaerobic; temperature not stated; conditions: protein: recombinant; chain copies: 2; label: 5' HEX on strand 1; blunt
[6] = target: T2, ZntR; assay: fluorescence anisotropy; Co(II)-ZntR, 5 uM CoCl2; 10 nM probe, 60 mM NaCl, 240 mM KCl, 10 mM HEPES pH 7.0, anaerobic; temperature not stated; conditions: protein: recombinant; chain copies: 2; label: 5' HEX on strand 1; blunt

B1: znuAPro (dsDNA)
DNA 1: TAGAATGTTATAATATCACATTTCACACATTCA
DNA 2: TGAATGTGTGAAATGTGATATTATAACATTCTA
Work on B1 yielded a Kd [1] of 31 nM, a Kd [2] of 41 nM and a Kd [3] of 54 nM.

B2: zntAPro (dsDNA)
DNA 1: CTTGACTCTGGAGTCGACTCCAGAGTGTATCCTC
DNA 2: GAGGATACACTCTGGAGTCGACTCCAGAGTCAAG
B2 showed a Kd [4] of 650 nM, a Kd [5] of 1100 nM and a Kd [6] of 340 nM.
